Here are results for 47 sequences from the NTF2 design screens of Basanta et al. (2020).

The data set can be described thus: protease stability score; higher = more stable; yeast display proteolysis, trypsin and chymotrypsin.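 Note: relative to predicted unfolded state with 0 unfolded-like and 1 meaning tenfold more protease.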
Sequence “TDEDRELHEAAELLIESTWTGDFDFLLELLDPNVRLVINGKHDHGREDIWEVLRRLLERLGLDRVRVKIKHIDSFDGRLHLNINLNFNGRQFRYHYESYKVNGQWVVRRIEVREK” had a protease stability score of 1.89.

“TDEEELAERLARIMIHLFLTGNEEIMSKLLDPDVRSWVNGQEFHGREEEAKVVRKMIEEWRFHDMHIHDVHVINGRLHVDSRVDNRVGDKTIDIRTELRFDVVNGRLKILEWHFT”: the protease stability score came to 0.341.

As to “TDEEELLHRILDEIEKALLTGDEDIIHRLFDPHVRFHVNGRHIVGRHEWSRWVNDHRKRFKNIQIRMRVEEKDVIDGRMHSRTKLHIIFNGVRYEITQEINIDVIDGRLKNVIVHDE”, the protease stability score was found to be 0.725.

Turning to “TDEEEMLRNFWHELIHALHTGDEELFEELADPDTRWYFENRVVIGRETVRNMIDELRIKEVRVERMRIQGDKFHAKLTQRGQINGREVNTETNLHVDIYNGRLKSVELRVK”, the protease stability score worked out at 0.888.

As for “TDEEKETEEHRKHFEHYERTGDWRELERLFDPNARLIIGDKILHGRELVTRWMFEFVKEMRINHIELHTMEIQGEKIHLDITVHVKFNGQERDIRVTEIHKKFDGRWTIEQIHFN”, the protease stability score amounted to 1.46.

As to “TDEEKSVEELLEKIEHANDTGDFELHKRLADPHVRVLVNGVELHGRHVLMEWLRELFERFKNVTFRLNLREVEFQGEWVFLRIELTVHVNGRTHHHDSIYIIHKVDGRWHITEVRFH”, the protease stability score turned out to be 1.34.

As for “TDEKRDLDDWLHLLLHAIRTGDFRIEEKLADPNARLEFNGKEFIGMHHILNFLIEWRLHHMDIKHIEKQGDYLHIDSRLDVDFDGQRTILETHLVSLKINGRWILHSMSIG”, the protease stability score came to 1.28.

As for “TDERDRYKHFLHLFRHLIKTGDEDVLANNADPHVKFHIHIGDKEREHHGMESMVKIFKEWRIHHLHIESFDVQGDKLIALVHVDGIINGRHHSTTVNIILTFVNGREKEVNIHLT”, the protease stability score amounted to 1.74.

In the case of “TDKEEETKENAEKLTKHILTGNWEEFFNLADPNVRMHIQQGDKRINRHGREDAYHEYKDLERNLGIDHMHIKDIRVQGDWVHIHLEYRYGDKRFEVEIVLLIVDGRLTEVNVTIR”, the protease stability score was 1.09.

“TDLEELFDYAIDLLRSLLLTGDEHMSVRLADPNTKLEVNGRYIHGREKFREWFRWFLEHLRFDHLHIHSVETQGDYAFMDSRVHLRYGDKVIEFITHQIVLKFDGRWYLHSMEIR” registered a protease stability score of 0.587.

The sequence “TDLKEYVERMLELLRKAIETGDETTLTKLVDPHVRLEVNGREFHGWKFWHMIVREIRMRDLELHHVEIQGDKMEVDGTLHLEINGKDDYRKVRLIAEKFDGRWVFTSVHFE” came in with a protease stability score of 1.72.

For “TDRHEIIIHRMKRLMLMELTGDEKLWERLVDPDVRIIFIFNGRRHEFHGREKALERLHDWWDHLRIDHLEVRRYDVINGRARTDMESHDTYDGQHYVIKFELVVQVIDGRVHSVEMIFK”, the protease stability score turned out to be 1.44.

Sequence “TDVEEQVHVAIELHLRTLLTGDEHLSEKLADPHVRILIDGQDYHGRTEWVKWIHTFHKRVDHHQIDVTTLSVQGDKIRIHFELKLHVNGVDLRFHILLIIEKYNGVWIMSEVHIS” gave a protease stability score of 1.67.

The sequence “TEDDEHLEEEAEEYKEYVRTGDWKKIFELADPHTKIDIGNYKRHGMEDFLRDVIHVYTKLGVTIEHHVHDVRVINGRAHVNMEVRVHYGEKDERIKTTLIMRKVDGRWKLTSIHFK” displayed a protease stability score of 1.15.

For “TEDDEILREALEIWRYVEQTGDEEDTHRMVDPHAKMIFNGKEIHGREHISRWMKEIRIHELRVHSFRVIDGRLILEVELVGRFNGREDTIEVEIISEKVDGRWVVSSLTIR”, the protease stability score came to 1.29.

In turn, “TEDDELEKWATQLVKEVLETGDERLLENLADPNVRVEIGEKDSHGREEMLKDWKHMGIDHIHFEHSEFVGDFIDIHLVIHVNGKDLKQRIIILKIDGQWFLHSVHVE” registered a protease stability score of 1.75.

The sequence “TEDDELLHRAERLVYHSLLTGDFHTLKHLMDPHVRTHIDGRDTHGRDKATNFFIKYWEDLGVKHITYEDMHVHFFEGHLTVLLIVKLNIDGRERRNVYIFIFMKIDGKWLNHEVHIHIN” came in with a protease stability score of 0.651.

Take “TEDDENAKMIMHLLYNHMKTGDFDTLVDMVDPHARNIIDGRELVGWEHFYRWLHELGFNHNELRVRDIKHFDGKVDVDVELILNVGDKHLRIRTTFIVRKVNGRWFIESIRLK”: the protease stability score was 1.38.

In turn, “TEDDEWFNEILRLMVEAMKTGDEHILERLLDPHVRIEINGKEIHGREEFVERLEEQQRKFKGIRHELEIKHTEVINGRAHIDGRLHIDVNGRRKIYRVELVILKIDGRWSVEEIRIH” displayed a protease stability score of 1.67.

In turn, “TEDDHKFEEAMRLWEHIEKTGDPHTASKMLDPNVRIYINGRELHGRHLFEHLEEHWLLELRLKHVQIQHIEVIDGRLEFDVEVNGQQGDKDIRMRVNVTVHKIDGRWFLKMVSFE” registered a protease stability score of 0.705.

Sequence “TEDDKDWEEIYKMLEHASKTGDERIFNKFIDPNTMSVVNGVDLIGMERWRNHWEHARFRHIEFRHVEIIDGRLDIQGHLRGEYNGREIRTDMRLIILKIDGRWIHKSFEFH” showed a protease stability score of 0.944.

Take “TEDDRAFELSMRKWLESHRTGDEKTMHELLDPNARYHIGEFHLHGWKEADRLVREIRIHHVEDKHVEIQGDKIRIHTRVDITINGQKSSVELELVLVKVNGVWFVHSVILR”: the protease stability score amounted to 1.8.

In turn, “TEDDRDFKLALELVEHHIKTGDEDDMSRLADPHVRIDDENETHHGREEFEEFVHRMIKRFKNIKWELKRTESQGDKIRIDFRIHVGDKTLRLIIIAEKVDGRWLIHTVIIN” came in with a protease stability score of 1.35.

For the sequence “TEDDRIFKEALELWVFAMNTGDERILFEMVDPHVRFVIGDKEYHGMEWRHKVLIELRIHRVRLEITHRDQFNGRIHIDGILQIDGEFNGRRDKTETEVRVTYTKFDGKWYYKEVIHL”, the protease stability score came to 1.44.

“TEDEDIFRHALEVWLRSFLTGNEEILNHLFDPHARVHIDGKNLHGMEMMVTHRQRHIEEARIRDSDIEHKNVIDGRIHIDIRVHGEVNGQEMDFNVTIIAMKVDGRWLIHSLHVE” came in with a protease stability score of 0.265.

As for “TEDEDRLTEMIEELLHALLTGDEKRKDELIDPHTKLDVNGRERHGMEEIKKNWRKLGVERIDLRVRERRIVNGVAHIRGDLHVGDKSMEVHIVFVKVDGRWIVHSFFIH”, the protease stability score was 1.31.

Take “TEDEDVLKEATRLFVEALKTGDWDHMRRLIDPNARVTQGDKEIHGMEDTVKIRRHLYEKWGVERVEMRIHDMEYQGDKLKVDMELQIGDKHKRIELVLRKVDGQWIIERIRYT”: the protease stability score was 0.528.

For the sequence “TEDEDYMHDATREFVTNVATGDEDRLRELMDPRTRHVYNGVRLHGRNLALEFWTHFRRELGVDHIEIRIRDLKFQGDYIHLHTEIVMDFNGVRIIYDTFVRVRKFNGQWMLQSSEIH”, the protease stability score was found to be 0.194.

“TEDEEAAERMIKTWLEKIITGNEEFLTEFMDPDTKVDINGKELHGWEDILQHLRHIRVHDMHVEIEDVRFINGVIEIRGTMHKDGEVNGRRTQTEQHVVFVLQKIDGRWRLRSYSIR” registered a protease stability score of 2.27.

“TEDEEAARRHTQEWIHAVRTGDEELLERMIDPEYKLDYNGVDIIGREEYIRIRSEQLQKFKNMRIEVRIHELRHQGDKIDLDVLIIEKWNGVTFRERSHLVILKFDGRWFIRFTSIK” came in with a protease stability score of 0.801.

In turn, “TEDEEAFKENIRILLELTKTGDFKEMSKLLDPHVRIIINGKLFVGMEHADRLVRERNEEWRIESLEVEHLQSVDGQIHADTKMHVNINGVHRIHDTHQIVLKVNGRWFMEQIEIR” returned a protease stability score of 1.01.

Turning to “TEDEEDSLFAFDEWVKSVETGDEHTLSKLADPHTRLNVNGVDQHGRENMSHMMLRLANRYDHIEIRLHSWRLINGRIEVDSRVINVVGDKRIESNFHMFILKVNGRWLMHSVHFE”, the protease stability score was found to be 0.847.

“TEDEEFAFEIIRLFHEALLTGDEETLHHLVDPNARMQIGEFTTHGRSMVKFFNKRFDHWEMRVEFRRIHYIGDKVFVDTRIRILIEYNGRFIETSVEQRIVTRKIDGKWQITRLEIV” yielded a protease stability score of 1.05.

In the case of “TEDEEISEKAFRYLVESLETGDEETDRHLADPHVRIVFEGRSYHGREQFHEIMSHIRVHHVEIRDVRVQGNKVDWDTQSKVEFNGRKYWVQTRIIVLKVDGRWILHSYILK”, the protease stability score was 0.708.

As to “TEDEEKSHEFVHRLSHSVMTGDWKDIKRLADPNMKSRVNGREIHGWDKTKRMLDEEEEQLGVSRFEFDLKRVDTQGDKLFIDMRMKVNGRTLEVTYHVEKVNGRWLVTEFHIL”, the protease stability score stood at 0.555.

“TEDEELAKLVSEILLHIMETGDEDKLSKMADPHVRVNINGRERHGWRNMVRVLHETIRNLGIEIKSVHIRDLKIQGDKIRVTMEIDYQQGDKRNEWSSHLIIIKIDGRWHLHAFELN” returned a protease stability score of 1.26.

With “TEDEELIERYVRFFLKIMETGDEKLTERMMDPDARFEIGDKEEHGREAIYEWLSKIKNIRIKIHHIKIQGDKLHLDVRFHINGKEIEVEIVSKKIDGKWMVHSVIVK”, the protease stability score was 1.5.

“TEDEELSHEIFEIWERVRRTGDEHTLERLADPNMRVHIDGQDYHGREMLFEFLNRFKGLKSDIHDMRIEIVGDYIILNIKVHITVNGREIHLTIHLHSRKFNGKWHLKELEIRKI” displayed a protease stability score of 1.32.

On to “TEDEELTSRANKEFQEFETTGDEEVLKRLFDPNTRLDVNGQDRHGRDEVVHLLVRMIHKLGIDHVSLKEVRIVNGKLDLNLTINVGEKRINTRLIHKKVNGRWVIETVEMG”, for which the protease stability score was 1.23.

For “TEDEENAERVARMFLKLLTTGDEHRLTELLDPNVIVEVGDKILIGREEALKLLRTWREKYGIDHVDVRHVEIEIVGDKVNVHMHGTIYVGDKKKDTRIHLHIRKINGRWMVEKVSIEEK”, the protease stability score was 2.68.

As for “TEDEENVIEATRIFNRVLETGDEDSLKRLLDPNVRVNFDGVELIGWEDFLKFVFEWRKKAGITQVKSEPRDMDLQGNKVHNETILHINGRTFETRLVHEKVNGRWIARSIRFS”, the protease stability score was 1.21.

In the case of “TEDEEYVKHIIDLFWHVKKTGDESHMKELADPNVRIEVDGRDIIGMEDVLKWEKDHREKIKGIRLNVHQWRIIGNKVESDLIVNINGVTIEFHVTVIIVNGKLHSLRVEFE”, the protease stability score is 1.21.

Regarding “TEDEHDARLALHILLELLRTGDEDSLSKYIDPNVRNEVNGQDLHGRNTMERLLKHWRIEEVRVKDVRVQGDKVIMHGREVIRQGDYVIDQDVHWLLVKVDGRWLLHSIHFR”, the protease stability score was determined as 0.918.

“TEDEHHEELIAKELFHNFLTGNEDLLSEMADPNTKSDIDGKHDVGREEMSRSLIEFLDKMGIKHLVLTDHRAVNGKVILHERVHVNGRDIEVNLTWDVWNGRIKRVEIRITHR” displayed a protease stability score of 0.982.

Consider “TEDEKFVEEFTRLIMHSFRTGDWELFEHLLDPDTRIEQGDWERIGMEEAIRLLHKVVHEMRVTHTDLKSITVIDGRIEIDARVHLEFNGQSVTYTQLILSIKIDGRWVLKSVHFH”, for which the protease stability score came out at 1.87.

For “TEDEKIAKDTLEEITEALATGDEDQLNRLMDPNVKIFFNGQEIHGRHDSVKYWREIRIRDSHIIIRHVDIQGDKIRLDGEYQLRGEIDGQEIERTMHVRLFMHKVNGRWIVRRQVWG”, the protease stability score was 1.56.

In turn, “TEDEKLSEDMTQHFIELLFTGDFDKISELADPNVRIHAENRTLVGRESFKRLMKKEIEFFKGARFHIEDLHIYDGRVDIHEIVSYGEFVIRRTIHSHKINGKWLETEVRLG” showed a protease stability score of 0.929.
